This note sets out measurements from US20260070961A1 (Takeda / Millennium, published 2026).

B1: DENV3-8D4 (antibody, V domains shown)
VH: QEQLEESGGGLVKPGGTLTLTCTASGFSFSNVYYICWVRQAPGKGLEWIGCIGTGDGNTWYASWAKGRFTISKASSTTVILQVTSLTAADTATYFCARDIYSYDNTGVYTVPKLWGPGTLVTVSS
VL: AAVLTQTPSPVSAAVGGTVSISCQSSESVYSNNRLAWYQQKPGQPPKLLIYRASTLESGVPSRFKGSGSGTEFTLTISDVRCDDAATYYCAGGYSGSSDKGFGGGTEVVVK
B2: DENV3-12H6 (antibody, V domains shown)
VH: QEQLEESGGDLVKPEGSLTLTCKASGIDFSSSYWICWVRQAPGKGLEWIGCIYTGSSTTWYAAWAKGRFTISKPSSTTVTLQMTSLTAADTATYFCARFYDVGVYFNLWGPGTLVTVSS
VL: AIVMTQTPSSKSVPVGDTVTINCQASESISSWLAWYQQKPGQPPKLLIYLASTLASGVPSRFKGSGSGTQFTLTISDVVCDDAATYYCAGYKSSVTDGFAFGGGTEVVVK
B3: DENV3-5D7 (antibody, V domains shown)
VH: QSLEESGGDLVKPGASLTLTCTASGFSFSSGYDMCWVRQAPGKGLEWIACIYITDTGSSYYATWARGRFTISKTSSTSVTLQVTSLTAADTATYFCAKTNYGSGGFAFNLWGPGTLVTVSS
VL: DVVMTQTPASVEARVGGTVTINCQASQSISNLLAWYQQKPGQPPKLLIYRASALESGVPSRFRGSGSGTEFTLTISDLECADAATYYCQCTYGGSSITNWAFGGGTEVVVK
notes: also called clone 5D7

The first assay addresses T1, DENV-3 VLP (Dengue virus serotype 3).
T1 construct: also called dengue 3 VLP; DENV-VLP
Nature of the assay: Luminex assay, VLP-conjugated MagPlex beads.
B1 yielded an EC50 of 0.115 µg/mL.

Molecule B2 returned an EC50 of 0.11 µg/mL.

Molecule B3 showed an EC50 of 0.025 µg/mL.

The target in another assay is T2, DENV3 Domain III protein (Dengue virus serotype 3).
T2 construct: domain: Domain III; also called TDV3 Domain III
As to the kind of experiment: BLI (Octet HTX), mAb coupled to AR2G biosensor, 20 ug/mL Domain III protein, response at 1200 sec.
Turning to B1, the “Response (nm)” value was 0.248 nm.

Regarding B2, the “Response (nm)” value worked out at 0.0148 nm.

Regarding B3, the “Response (nm)” value amounted to 0.0178 nm.

Another assay deals with T1, DENV-3 VLP. As to the kind of experiment: BLI (Octet-HTX), IgG from supernatant captured on Protein A biosensor, 5 ug/mL DENV-VLP.
In turn, B1 gave a response of 1.51.

For the molecule B2, the response was 1.39.

For B3, the response stood at 0.984.

The target in a further assay is T1, DENV-3 VLP. As to the kind of experiment: BLI (Octet-HTX), IgG from supernatant captured on Protein A biosensor, 5 ug/mL DENV-VLP, 1:1 model.
As for B1, the koff was < 2e-05 s⁻¹.

In the case of B2, the koff is < 2e-05 s⁻¹.

With B3, the koff was < 2e-05 s⁻¹.
